Where “and” joins values, the source holds several entries; their conditions need not be identical. Equal entries are not always repeated.
Target: GINS complex (Gins51 and Gins23), wild type (Thermococcus kodakarensis)
Test: native gel or EMSA

In the case of “family D DNA polymerase (PolD), DP1 and DP2 (complex)”, the stoichiometry N (PolD per GINS) is reported as 2 and 1.

Reference: publication PMC9023282
